Experimental data reported in patent US20260201064A1 (ISU ABXIS, published 2026).

T1: recombinant human ASM protein (human, UniProt P17405 47-630)
T1 construct: Recombinant human ASM in solution; also called acid sphingomyelinase (ASM) protein
T1 sequence: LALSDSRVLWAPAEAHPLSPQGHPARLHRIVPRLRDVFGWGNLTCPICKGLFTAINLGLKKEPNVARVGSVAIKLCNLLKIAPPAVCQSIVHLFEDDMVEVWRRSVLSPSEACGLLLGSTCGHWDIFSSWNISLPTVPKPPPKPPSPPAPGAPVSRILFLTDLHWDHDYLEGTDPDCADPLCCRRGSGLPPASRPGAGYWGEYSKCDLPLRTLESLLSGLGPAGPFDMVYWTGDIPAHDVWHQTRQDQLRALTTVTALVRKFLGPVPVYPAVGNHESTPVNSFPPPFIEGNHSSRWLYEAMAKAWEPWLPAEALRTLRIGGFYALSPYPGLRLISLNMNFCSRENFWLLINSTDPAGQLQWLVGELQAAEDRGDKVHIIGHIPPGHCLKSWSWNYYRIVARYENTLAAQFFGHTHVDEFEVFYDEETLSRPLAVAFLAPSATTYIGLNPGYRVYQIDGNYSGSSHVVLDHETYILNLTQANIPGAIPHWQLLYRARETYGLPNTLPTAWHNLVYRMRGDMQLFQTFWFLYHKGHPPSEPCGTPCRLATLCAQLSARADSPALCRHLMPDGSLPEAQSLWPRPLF


Target: T1, recombinant human ASM protein
Assay: BLI (Octet), antibody on AHC sensor
Method: The binding affinity, to the ASM protein, of the produced antibodies specifically binding to the ASM protein and the interactive dynamics therebetween were measured using an Octet® QK384 system (Pall Life Sciences).
First, an antibody specifically binding to the ASM protein produced in Example 1 was captured using an anti-human IgG Fc capture (AHC) biosensor, and 1.25, 2.5, 5, 10, or 20 nM recombinant human ASM protein solution was added thereto. […] The association constant (Kₐ), dissociation constant (Kd), and equilibrium dissociation constant (KD) for each antibody were determined using Octet® analysis software (Pall Life® Sciences). As a result, the binding affinities, to the human ASM protein, of the antibodies with mutations in the heavy chain CDR regions of the antibody #9104 as depicted in Table 1 are shown in Table 5, and the binding affinities, to the human ASM protein, of the antibodies with mutations of the light chain CDR regions in the antibody #9104 as depicted in Table 2 are shown in Table 6.

| Kd [nM] | koff [s⁻¹] | kon [M⁻¹ s⁻¹] | Binder |
| --- | --- | --- | --- |
| 0.768 | 0.000199 | 259000 | #9104v-L11 (antibody, human IgG4 S228P, lambda, V domains shown, Full-length IgG, lambda) VH: EVQLLESGGGLVQPGGSLRLSCAASGFTFSNYYMSWVRQAPGKGLEWVSGIYYGSGNIYYADSVKGRFTISRDNSKNTLYLQMNSLRAEDTAVYYCARDTPGFDYWGQGTLVTVSS VL: QSVLTQPPSASGTPGQRVTISCTGSSSNIGNNAVNWYQQLPGTAPKLLIYYDIFQPSGVPDRFSGSKSGTSASLAISGLRSEDEADYYCGAWDYSLSAYVFGGGTKLTVLG |
| 0.718 | 0.000159 | 221000 | #9104v-L12 (antibody, human IgG4 S228P, lambda, V domains shown, Full-length IgG, lambda) VH: EVQLLESGGGLVQPGGSLRLSCAASGFTFSNYYMSWVRQAPGKGLEWVSGIYYGSGNIYYADSVKGRFTISRDNSKNTLYLQMNSLRAEDTAVYYCARDTPGFDYWGQGTLVTVSS VL: QSVLTQPPSASGTPGQRVTISCTGSSSNIGNNAVNWYQQLPGTAPKLLIYYDIFRPDGVPDRFSGSKSGTSASLAISGLRSEDEADYYCGAWDYSLSAYVFGGGTKLTVLG |
| 0.992 | 0.000273 | 275000 | #9104v-L15 (antibody, human IgG4 S228P, lambda, V domains shown, Full-length IgG, lambda) VH: EVQLLESGGGLVQPGGSLRLSCAASGFTFSNYYMSWVRQAPGKGLEWVSGIYYGSGNIYYADSVKGRFTISRDNSKNTLYLQMNSLRAEDTAVYYCARDTPGFDYWGQGTLVTVSS VL: QSVLTQPPSASGTPGQRVTISCTGSSSNIGNNAVNWYQQLPGTAPKLLIYYDIHRPYGVPDRFSGSKSGTSASLAISGLRSEDEADYYCGAWDYSLSAYVFGGGTKLTVLG |
| 1.07 | 0.000292 | 272000 | #9104v-L29 (antibody, human IgG4 S228P, lambda, V domains shown, Full-length IgG, lambda) VH: EVQLLESGGGLVQPGGSLRLSCAASGFTFSNYYMSWVRQAPGKGLEWVSGIYYGSGNIYYADSVKGRFTISRDNSKNTLYLQMNSLRAEDTAVYYCARDTPGFDYWGQGTLVTVSS VL: QSVLTQPPSASGTPGQRVTISCTGSSSNIGNNAVNWYQQLPGTAPKLLIYYDSFRSTGVPDRFSGSKSGTSASLAISGLRSEDEADYYCGAWDYSLSAYVFGGGTKLTVLG |
| 1.61 | 0.000493 | 306000 | #9104v-L34 (antibody, human IgG4 S228P, lambda, V domains shown, Full-length IgG, lambda) VH: EVQLLESGGGLVQPGGSLRLSCAASGFTFSNYYMSWVRQAPGKGLEWVSGIYYGSGNIYYADSVKGRFTISRDNSKNTLYLQMNSLRAEDTAVYYCARDTPGFDYWGQGTLVTVSS VL: QSVLTQPPSASGTPGQRVTISCTGSSSNIGNNAVNWYQQLPGTAPKLLIYYDSYQASGVPDRFSGSKSGTSASLAISGLRSEDEADYYCGAWDYSLSAYVFGGGTKLTVLG |

More lines, now with the values behind:

| Binder | Kd [nM] | koff [s⁻¹] | kon [M⁻¹ s⁻¹] |
| --- | --- | --- | --- |
| #9104v-L38 (antibody, human IgG4 S228P, lambda, V domains shown, Full-length IgG, lambda) VH: EVQLLESGGGLVQPGGSLRLSCAASGFTFSNYYMSWVRQAPGKGLEWVSGIYYGSGNIYYADSVKGRFTISRDNSKNTLYLQMNSLRAEDTAVYYCARDTPGFDYWGQGTLVTVSS VL: QSVLTQPPSASGTPGQRVTISCTGSSSNIGNNAVNWYQQLPGTAPKLLIYYDSYRPFGVPDRFSGSKSGTSASLAISGLRSEDEADYYCGAWDYSLSAYVFGGGTKLTVLG | 1.8 | 0.000343 | 191000 |
| #9104v-L33 (antibody, human IgG4 S228P, lambda, V domains shown, Full-length IgG, lambda) VH: EVQLLESGGGLVQPGGSLRLSCAASGFTFSNYYMSWVRQAPGKGLEWVSGIYYGSGNIYYADSVKGRFTISRDNSKNTLYLQMNSLRAEDTAVYYCARDTPGFDYWGQGTLVTVSS VL: QSVLTQPPSASGTPGQRVTISCTGSSSNIGNNAVNWYQQLPGTAPKLLIYYDSYPPYGVPDRFSGSKSGTSASLAISGLRSEDEADYYCGAWDYSLSAYVFGGGTKLTVLG | 1.27 | 0.000289 | 227000 |
| #9104v-L23 (antibody, human IgG4 S228P, lambda, V domains shown, Full-length IgG, lambda) VH: EVQLLESGGGLVQPGGSLRLSCAASGFTFSNYYMSWVRQAPGKGLEWVSGIYYGSGNIYYADSVKGRFTISRDNSKNTLYLQMNSLRAEDTAVYYCARDTPGFDYWGQGTLVTVSS VL: QSVLTQPPSASGTPGQRVTISCTGSSSNIGNNAVNWYQQLPGTAPKLLIYYDQFRPSGVPDRFSGSKSGTSASLAISGLRSEDEADYYCGAWDYSLSAYVFGGGTKLTVLG | 0.817 | 0.000185 | 226000 |
| #9104v-L25 (antibody, human IgG4 S228P, lambda, V domains shown, Full-length IgG, lambda) VH: EVQLLESGGGLVQPGGSLRLSCAASGFTFSNYYMSWVRQAPGKGLEWVSGIYYGSGNIYYADSVKGRFTISRDNSKNTLYLQMNSLRAEDTAVYYCARDTPGFDYWGQGTLVTVSS VL: QSVLTQPPSASGTPGQRVTISCTGSSSNIGNNAVNWYQQLPGTAPKLLIYYDSFPASGVPDRFSGSKSGTSASLAISGLRSEDEADYYCGAWDYSLSAYVFGGGTKLTVLG | 0.882 | 0.000259 | 294000 |
| #9104v-L28 (antibody, human IgG4 S228P, lambda, V domains shown, Full-length IgG, lambda) VH: EVQLLESGGGLVQPGGSLRLSCAASGFTFSNYYMSWVRQAPGKGLEWVSGIYYGSGNIYYADSVKGRFTISRDNSKNTLYLQMNSLRAEDTAVYYCARDTPGFDYWGQGTLVTVSS VL: QSVLTQPPSASGTPGQRVTISCTGSSSNIGNNAVNWYQQLPGTAPKLLIYYDSFRRSGVPDRFSGSKSGTSASLAISGLRSEDEADYYCGAWDYSLSAYVFGGGTKLTVLG | 1.05 | 0.000254 | 241000 |
| #9104v-L27 (antibody, human IgG4 S228P, lambda, V domains shown, Full-length IgG, lambda) VH: EVQLLESGGGLVQPGGSLRLSCAASGFTFSNYYMSWVRQAPGKGLEWVSGIYYGSGNIYYADSVKGRFTISRDNSKNTLYLQMNSLRAEDTAVYYCARDTPGFDYWGQGTLVTVSS VL: QSVLTQPPSASGTPGQRVTISCTGSSSNIGNNAVNWYQQLPGTAPKLLIYYDSFRQSGVPDRFSGSKSGTSASLAISGLRSEDEADYYCGAWDYSLSAYVFGGGTKLTVLG | 1.02 | 0.000355 | 348000 |
| #9104v-L39 (antibody, human IgG4 S228P, lambda, V domains shown, Full-length IgG, lambda) VH: EVQLLESGGGLVQPGGSLRLSCAASGFTFSNYYMSWVRQAPGKGLEWVSGIYYGSGNIYYADSVKGRFTISRDNSKNTLYLQMNSLRAEDTAVYYCARDTPGFDYWGQGTLVTVSS VL: QSVLTQPPSASGTPGQRVTISCTGSSSNIGNNAVNWYQQLPGTAPKLLIYYDSYRPGGVPDRFSGSKSGTSASLAISGLRSEDEADYYCGAWDYSLSAYVFGGGTKLTVLG | 1.52 | 0.000443 | 291000 |
| #9104v-L20 (antibody, human IgG4 S228P, lambda, V domains shown, Full-length IgG, lambda) VH: EVQLLESGGGLVQPGGSLRLSCAASGFTFSNYYMSWVRQAPGKGLEWVSGIYYGSGNIYYADSVKGRFTISRDNSKNTLYLQMNSLRAEDTAVYYCARDTPGFDYWGQGTLVTVSS VL: QSVLTQPPSASGTPGQRVTISCTGSSSNIGNNAVNWYQQLPGTAPKLLIYYDMFRPGGVPDRFSGSKSGTSASLAISGLRSEDEADYYCGAWDYSLSAYVFGGGTKLTVLG | 0.658 | 0.000162 | 247000 |
| #9104v-L37 (antibody, human IgG4 S228P, lambda, V domains shown, Full-length IgG, lambda) VH: EVQLLESGGGLVQPGGSLRLSCAASGFTFSNYYMSWVRQAPGKGLEWVSGIYYGSGNIYYADSVKGRFTISRDNSKNTLYLQMNSLRAEDTAVYYCARDTPGFDYWGQGTLVTVSS VL: QSVLTQPPSASGTPGQRVTISCTGSSSNIGNNAVNWYQQLPGTAPKLLIYYDSYRASGVPDRFSGSKSGTSASLAISGLRSEDEADYYCGAWDYSLSAYVFGGGTKLTVLG | 1.27 | 0.000327 | 259000 |
| #9104v-L21 (antibody, human IgG4 S228P, lambda, V domains shown, Full-length IgG, lambda) VH: EVQLLESGGGLVQPGGSLRLSCAASGFTFSNYYMSWVRQAPGKGLEWVSGIYYGSGNIYYADSVKGRFTISRDNSKNTLYLQMNSLRAEDTAVYYCARDTPGFDYWGQGTLVTVSS VL: QSVLTQPPSASGTPGQRVTISCTGSSSNIGNNAVNWYQQLPGTAPKLLIYYDMFRPNGVPDRFSGSKSGTSASLAISGLRSEDEADYYCGAWDYSLSAYVFGGGTKLTVLG | 0.556 | 0.000135 | 243000 |
| #9104v-L19 (antibody, human IgG4 S228P, lambda, V domains shown, Full-length IgG, lambda) VH: EVQLLESGGGLVQPGGSLRLSCAASGFTFSNYYMSWVRQAPGKGLEWVSGIYYGSGNIYYADSVKGRFTISRDNSKNTLYLQMNSLRAEDTAVYYCARDTPGFDYWGQGTLVTVSS VL: QSVLTQPPSASGTPGQRVTISCTGSSSNIGNNAVNWYQQLPGTAPKLLIYYDLFRPSGVPDRFSGSKSGTSASLAISGLRSEDEADYYCGAWDYSLSAYVFGGGTKLTVLG | 1.03 | 0.000238 | 231000 |
| #9104v-L32 (antibody, human IgG4 S228P, lambda, V domains shown, Full-length IgG, lambda) VH: EVQLLESGGGLVQPGGSLRLSCAASGFTFSNYYMSWVRQAPGKGLEWVSGIYYGSGNIYYADSVKGRFTISRDNSKNTLYLQMNSLRAEDTAVYYCARDTPGFDYWGQGTLVTVSS VL: QSVLTQPPSASGTPGQRVTISCTGSSSNIGNNAVNWYQQLPGTAPKLLIYYDSYLPSGVPDRFSGSKSGTSASLAISGLRSEDEADYYCGAWDYSLSAYVFGGGTKLTVLG | 1.37 | 0.000439 | 321000 |
